Source: PMC8166090, “Improvements of the productivity and saccharification efficiency of the cellulolytic β-glucosidase D2-BGL in Pichia pastoris via directed evolution” (Biotechnology for Biofuels, 2021)

Experiments:
[1] = target: T1, D2-BGL (WT D2; Pp D2-BGL) (Chaetomella raphigera, UniProt A0A068FT77, D224G/F256M/Y260D); experiment: p-nitrophenol release at […] nm, […] pNPG, substrate inhibition fit; assay type: biochemical; settings: 50 mM NaOAc pH 5, 55 °C
T1 construct: 722 residues, 76 kDa theoretical; alpha-mating factor secretion signal upstream (pGAPZalphaC-D2); expressed in Pichia pastoris SMD 1168; glycosylated

[2] = target: T2, D2-BGL (WT D2; Pp D2-BGL) (Chaetomella raphigera, UniProt A0A068FT77); experiment: inhibition of pNPG hydrolysis with […] glucose; assay type: biochemical; settings: pNPG as substrate; 50 mM NaOAc pH 5, 55 °C; product inhibition
T2 construct: 722 residues, 76 kDa theoretical; alpha-mating factor secretion signal upstream (pGAPZalphaC-D2); expressed in Pichia pastoris SMD 1168; glycosylated
T2 sequence (A0A068FT77 1-722): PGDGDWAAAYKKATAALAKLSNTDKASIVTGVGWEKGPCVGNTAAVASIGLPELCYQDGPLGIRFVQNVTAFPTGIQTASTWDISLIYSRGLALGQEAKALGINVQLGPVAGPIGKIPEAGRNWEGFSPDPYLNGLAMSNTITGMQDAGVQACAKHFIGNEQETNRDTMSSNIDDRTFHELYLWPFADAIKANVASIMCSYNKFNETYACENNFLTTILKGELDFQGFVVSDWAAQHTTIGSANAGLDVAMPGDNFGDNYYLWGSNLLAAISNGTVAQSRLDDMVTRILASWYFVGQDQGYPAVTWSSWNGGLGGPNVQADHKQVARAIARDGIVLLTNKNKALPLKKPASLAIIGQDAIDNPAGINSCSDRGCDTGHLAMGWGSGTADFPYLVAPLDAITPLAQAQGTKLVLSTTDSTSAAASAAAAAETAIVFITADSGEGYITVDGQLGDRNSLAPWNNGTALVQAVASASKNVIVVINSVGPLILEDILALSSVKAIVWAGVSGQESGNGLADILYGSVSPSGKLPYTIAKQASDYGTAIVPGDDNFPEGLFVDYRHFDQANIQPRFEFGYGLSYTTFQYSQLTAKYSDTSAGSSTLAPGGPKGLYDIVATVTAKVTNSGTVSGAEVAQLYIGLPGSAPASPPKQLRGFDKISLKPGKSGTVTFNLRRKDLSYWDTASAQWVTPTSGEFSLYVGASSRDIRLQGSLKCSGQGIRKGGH

[3] = target: T1, D2-BGL (WT D2; Pp D2-BGL); experiment: inhibition of pNPG hydrolysis with […] glucose; assay type: biochemical; settings: pNPG as substrate; 50 mM NaOAc pH 5, 55 °C; product inhibition; read-out: Mut M
[4] = substrate: O=[N+]([O-])c1ccc(O[C@@H]2O[C@H](CO)[C@@H](O)[C@H](O)[C@H]2O)cc1; experiment: purified protein; settings: 50 mM NaOAc pH 5, 55 °C

Molecule: O=[N+]([O-])c1ccc(O[C@@H]2O[C@H](CO)[C@@H](O)[C@H](O)[C@H]2O)cc1 [pNPG, p-nitrophenyl β-D-glucopyranoside]
- kinetic constant from substrate inhibition fit [1]: 3.21 ± 0.56 mM

Molecule: OC[C@H]1OC(O)[C@H](O)[C@@H](O)[C@@H]1O (stereo partly shown) [glucose]
- Ki [2]: 3230 ± 1080 µM
- Ki [3]: 1590 ± 70 µM

B1: D2-BGL (WT D2; Pp D2-BGL) (Chaetomella raphigera) (protein)
chain: PGDGDWAAAYKKATAALAKLSNTDKASIVTGVGWEKGPCVGNTAAVASIGLPELCYQDGPLGIRFVQNVTAFPTGIQTASTWDISLIYSRGLALGQEAKALGINVQLGPVAGPIGKIPEAGRNWEGFSPDPYLNGLAMSNTITGMQDAGVQACAKHFIGNEQETNRDTMSSNIDDRTFHELYLWPFADAIKANVASIMCSYNKFNETYACENNFLTTILKGELDFQGFVVSDWAAQHTTIGSANAGLDVAMPGDNFGDNYYLWGSNLLAAISNGTVAQSRLDDMVTRILASWYFVGQDQGYPAVTWSSWNGGLGGPNVQADHKQVARAIARDGIVLLTNKNKALPLKKPASLAIIGQDAIDNPAGINSCSDRGCDTGHLAMGWGSGTADFPYLVAPLDAITPLAQAQGTKLVLSTTDSTSAAASAAAAAETAIVFITADSGEGYITVDGQLGDRNSLAPWNNGTALVQAVASASKNVIVVINSVGPLILEDILALSSVKAIVWAGVSGQESGNGLADILYGSVSPSGKLPYTIAKQASDYGTAIVPGDDNFPEGLFVDYRHFDQANIQPRFEFGYGLSYTTFQYSQLTAKYSDTSAGSSTLAPGGPKGLYDIVATVTAKVTNSGTVSGAEVAQLYIGLPGSAPASPPKQLRGFDKISLKPGKSGTVTFNLRRKDLSYWDTASAQWVTPTSGEFSLYVGASSRDIRLQGSLKCSGQGIRKGGH
- Km [4]: 310 ± 140 µM
- Vmax [4]: 575 µM/min

B2: D2-BGL (WT D2; Pp D2-BGL) (Chaetomella raphigera; D224G/F256M/Y260D) (protein)
chain: PGDGDWAAAYKKATAALAKLSNTDKASIVTGVGWEKGPCVGNTAAVASIGLPELCYQDGPLGIRFVQNVTAFPTGIQTASTWDISLIYSRGLALGQEAKALGINVQLGPVAGPIGKIPEAGRNWEGFSPDPYLNGLAMSNTITGMQDAGVQACAKHFIGNEQETNRDTMSSNIDDRTFHELYLWPFADAIKANVASIMCSYNKFNETYACENNFLTTILKGELGFQGFVVSDWAAQHTTIGSANAGLDVAMPGDNMGDNDYLWGSNLLAAISNGTVAQSRLDDMVTRILASWYFVGQDQGYPAVTWSSWNGGLGGPNVQADHKQVARAIARDGIVLLTNKNKALPLKKPASLAIIGQDAIDNPAGINSCSDRGCDTGHLAMGWGSGTADFPYLVAPLDAITPLAQAQGTKLVLSTTDSTSAAASAAAAAETAIVFITADSGEGYITVDGQLGDRNSLAPWNNGTALVQAVASASKNVIVVINSVGPLILEDILALSSVKAIVWAGVSGQESGNGLADILYGSVSPSGKLPYTIAKQASDYGTAIVPGDDNFPEGLFVDYRHFDQANIQPRFEFGYGLSYTTFQYSQLTAKYSDTSAGSSTLAPGGPKGLYDIVATVTAKVTNSGTVSGAEVAQLYIGLPGSAPASPPKQLRGFDKISLKPGKSGTVTFNLRRKDLSYWDTASAQWVTPTSGEFSLYVGASSRDIRLQGSLKCSGQGIRKGGH
- Km [4]: 180 ± 50 µM
- Vmax [4]: 374 µM/min
